Measured values taken from paper PMC11257031 (Archives of biochemistry and biophysics, 2023).

Molecular target: the molecule itself
Experiment: SEC

B1: Zymomonas mobilis pyruvate kinase (enzyme, UniProt O86020 1-475, looked up)
chain: MTEGLFPRGRKVRVVSTLGPASSTAEQIRDRFLAGADVFRINMSHGTHDEKKVIVDNIRALEKEFNRPTTILFDLQGPKLRVGDFKEGKVQLKEGQTFTFDQDPTLGDETRVNLPHPEIFKALDKGHRLLLDDGKIVVRCVESSPTKIVTRVEVPGPLSDHKGFNVPDVVIPLAALTPKDRKDLDFALKEKADWVALSFVQRVEDVIEAKELIKGRAPLLVKLEKPAAIENLESILAATDAVMVARGDLGVECLPESVPPTQKRIVERSRQLGKPVVVATAMLESMIKAPAPTRAEVSDVANAIYEGADGIMLSAESAAGDWPHEAVNMMHRIASYVENAPGYIERVRFTPTPAEPTTVDALAENASKTAETVGAKAIIVFTETGKTAQRVSRARPVAPILSLTPDAEVARRLGLVWGAQPVQVSTVKTLDEAKKLAAETAKKYGFAKAGDKLVVVAGEPFGKAGTTNIVDVIEA
  stoichiometry N: 2
